Consider four molecules from article PMC6220267 (2018).

What all share (test): BLI
In general terms: In BLI a coated tip is dipped into the sample, and binding shifts an interference pattern.

Assay [1] deals with T1, Aβ42 oligomers (soluble) (UniProt P05067 672-713).
The target of assay [2] is T1, Aβ42 oligomers (soluble). This is another data set of the same source.
A further assay concerns the target Aβ42 monomers (UniProt P05067 672-713).
The next assay has as its target Aβ40 monomers (UniProt P05067 672-711).

One may read the koff as the first-order rate constant of dissociation. Read a low koff as a long-lived complex. The Kd is the concentration at which binding is half-saturated. A low value points to higher affinity.

B1: soluble mouse Trem2‐Fc (soluble ectodomain) (Fc fusion)
chain: LNTTVLQGMAGQSLRVSCTYDALKHWGRRKAWCRQLGEEGPCQRVVSTHGVWLLAFLKKRNGSTVIADDTLAGTVTITLKNLQAGDAGLYQCQSLRGREAEVLQKVLVEVLEDPLDDQDAGDLWVPEESSSFEGAQVEHSTSRNQETSFPPTS
As to B1, in the assay with Aβ42 oligomers (soluble) [1], the koff came to 1e-07 s⁻¹. In the assay with Aβ42 oligomers (soluble) [2], the affinity, expressed as Kd, was 1 pM.

B2: soluble mouse Treml1‐Fc (soluble ectodomain) (Fc fusion)
chain: DSHPEVLQAPVGSSILVQCHYRLQDVRALKVWCQFLQEGCHPLVTSAVDRRAPGNGRIFLTDLGGGLLQVEMVTLQEEDTGEYGCVVEGAAGPQTLHRVSLLVLPPVPGPREGEEAEDEKETYRIGTGSLLEDPSLDPSASAGPHEFRRRENSIP
For B2, the koff in the assay with Aβ42 oligomers (soluble) [1] came out at 1e-07 s⁻¹. Besides, the Kd with Aβ42 oligomers (soluble) [2] amounted to 1 pM.

B3: soluble TREML1‐Fc (human, soluble ectodomain) (Fc fusion)
chain: QGIVGSLPEVLQAPVGSSILVQCHYRLQDVKAQKVWCRFLPEGCQPLVSSAVDRRAPAGRRTFLTDLGGGLLQVEMVTLQEEDAGEYGCMVDGARGPQILHRVSLNILPPEEEEETHKIGSLAENAFSDPAGSANPLEPSQDEKSIP
As to B3, the koff in the assay with Aβ42 oligomers (soluble) [1] worked out at 1e-07 s⁻¹. In the assay with Aβ42 oligomers (soluble) [2], this molecule yielded a Kd of 1 pM.

B4: soluble TREM2‐Fc (soluble ectodomain of human TREM2 fused to the Fc domain of human IgG4, V5 epitope) (Fc fusion)
chain: HNTTVFQGVAGQSLQVSCPYDSMKHWGRRKAWCRQLGEKGPCQRVVSTHNLWLLSFLRRWNGSTAITDDTLGGTLTITLRNLQPHDAGLYQCQSLHGSEADTLRKVLVEVLADPLDHRDAGDLWFPGESESFEDAHVEHSISRSLLEGEIPFPPTS
For B4, the Kd amounted to 290000 pM with Aβ42 monomers and 140000 pM with Aβ40 monomers.
